These results are taken from PMC8020832.

Changes are numbered by the printed parent chain. Names may count otherwise.

B1: 2411a revertant of heavy chain Y33V/M34L (CDR H1) (antibody, V domains shown)
VH: QVQLVQSGAEMKKPGASVRVSCEASGYTFTDYYMHWMRQAPGQGIEWLGWIKPRYGAVNYAHKFQGRVSMTRDTSIDTAYLELINLRSDDTAIYYCARSFDSDYEWWFTYWGQGTLVSVSA
VL: EIVLTQSPGTLSLSPGERATLSCRASYFISRDYLAWYQQRPGQAPKLLIYGTTTRASGIPDRFSGSGSGTDFTLTISRLEPEDFAVYYCQQYEFFGLGTKVEIK
B2: 2411a revertant of heavy chain G56A/T57V (CDR H2) (antibody, V domains shown)
VH: B1 VH with Y33V, M34L, A57G, V58T
VL: B1 VL
B3: 2411a revertant of light chain S27aF (CDR L1) (antibody, V domains shown)
VH: B1 VH with Y33V, M34L
VL: B1 VL with F28S
B4: 2411a revertant of light chain Q27Y (CDR L1) (antibody, V domains shown)
VH: B1 VH with Y33V, M34L
VL: B1 VL with Y27Q
B5: 2411a revertant of heavy chain N52K (CDR H2) (antibody, V domains shown)
VH: B1 VH with Y33V, M34L, K52N
VL: B1 VL
B6: 2411a revertant of heavy chain Q61H (CDR H2) (antibody, V domains shown)
VH: B1 VH with Y33V, M34L, H62Q
VL: B1 VL
B7: 2411a revertant of heavy chain N53R/S54Y (CDR H2) (antibody, V domains shown)
VH: B1 VH with Y33V, M34L, R54N, Y55S
VL: B1 VL

In this test the target is 18 Env antigens. Briefly: ELISA.
As to B1, the mean fold change in ELISA binding titer (OD450) versus parental 2411a is 3.9 fold.
Next, B2: 5.5 fold; B3: 1.6 fold.
The same measure for B4: 1.8 fold.
Take B5: the mean fold change in ELISA binding titer (OD450) versus parental 2411a is 5.4 fold.
Take B6: the mean fold change in ELISA binding titer (OD450) versus parental 2411a stood at 1.4 fold.
The same measure for B7: 6.5 fold.
